Results as given in the supplement of paper PMC10567573.

B1: ADD1 (parent)
chain: GEGTGSPPKWQIGEQEFEALMRML
B2: PLK2 (parent)
chain: YAELGQCSVFPATDAPEQFISQVT

Variants of: B1
Test: protein stability index of a GFP-peptide fusion (GPS, HEK-293T) (PSI 1-6); higher = more stable
Settings: c terminus: a fixed tail appended
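Also: lentivirally expressed fusions sorted by FACS into six bins by GFP to DsRed ratio, PSI derived from sequencing read proportions per bin multiplied by bin number.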

Protein stability index: each site, then its substitutions
G1: V 2.49, R 3.26, S 2.99, L 3.32, E 3.57, K 2.91, T 2.94, D 3.66, C 2.88, Q 3.24, F 3.06, I 2.92, Y 3.13, P 3.26, W 2.54, M 2.71, A 3.28, N 3.51, H 3.1
T4: S 3.08, K 2.13, F 2.35, R 3.44, Y 3.26, L 3.38, V 2.98, N 3.07, P 3.06, A 3.63, M 3.01, W 2.36, G 3.14, H 3.19, I 2.75, E 3.51, C 2.94, D 2.96, Q 3.08
E2: Y 2.28, C 3.14, W 2.8, D 2.79, G 3.06, N 2.77, Q 3.53, R 3.16, M 2.91, T 3.33, L 3.15, V 3.94, H 2.96, I 4.01, S 2.73, P 3.06, F 2.73, K 2.3
G3: E 3.07, P 3.14, T 3.54, H 2.94, M 3.01, D 3.19, V 3.41, F 2.89, I 3, N 3.51, Y 3.63, C 3.6, W 2.49, K 2.64, L 3.45, A 3.42, Q 3.8, R 3.14, S 2.87
S6: I 2.75, D 3.25, C 2.75, A 2.87, H 2.76, F 1.88, E 3.45, G 2.55
G5: W 2.21, E 3.21, M 2.4, Q 3.49, N 3.28, L 2.9, D 3.15, P 2.83, F 2.46, R 2.77, K 2.15, T 3, V 3.09, I 2.74, S 3.01, C 2.86, A 3.39, H 3.12, Y 3.02

Variants of: B2
Test: as above
Settings: c terminus: a fixed tail appended

Protein stability index: each site, then its substitutions
A12: T 2.22, P 2.47, V 2.1, R 1.63, Q 2.6, S 2.1, W 2.14, Y 1.95
I20: P 2.24, A 2.13, G 2.69, S 3.25, F 2.54, R 2.53, W 1.27, M 2.35, D 2.75, K 2.15, L 2.11, E 2.69, V 2.84, Y 1.7, T 2.27, Q 2.31, N 2.65, H 2.96
E17: Y 2.64, I 1.75, Q 2.9, G 2.15, S 2.06, R 1.62, M 1.6, A 1.92, W 3.35, K 2.32, H 1.86, V 1.78, N 1.95, F 2.18, T 2.6, L 2.33, P 2.12, C 1.79
Q18: I 2.02, V 2.49, S 2.29, D 2.98, F 2.15, G 2.82, R 1.88, K 2.08, A 1.87, H 2.19, N 2.73, L 2, P 2.01, Y 2.26, M 2, E 2.87, T 2.13, W 2.21, C 1.84
A15: W 2.29, I 1.96, D 2.27, Y 2.13, V 2.22, G 2.38, E 2.6, C 2, L 2.31, H 2.58, N 2.33, T 2.19, M 2.18, K 2.29, Q 2.17, F 1.98, R 2.21, S 1.83, P 2.47
S21: F 1.82, L 2.59, D 2.72, R 1.76, M 3.09, H 1.8, P 2.41, C 1.53, A 1.64, V 1.9, E 2.75, K 2.35, Q 1.89, G 2.26, T 2.49, I 2.64, N 2.14, Y 1.57, W 2.92
T24: I 2.48, R 2.14, V 1.9, D 2.64, M 1.73, E 2.33, N 2.92, G 2.31, Y 2, A 1.59, H 2.57, C 1.31, F 1.62, L 2.21, Q 2.68, K 2.6, S 2.1, P 2.08
P16: Q 2.44, A 1.8, H 1.58, L 1.84, D 2.53, M 1.91, W 2.84, F 1.64, S 2.33, I 1.74, E 2.66, R 1.84, K 1.87, V 1.66, N 2.35, T 2.05, C 2.04, G 1.89, Y 1.79
T13: P 2.17, W 1.89, C 1.97, H 2.2, G 2.32, F 1.33, S 2.37, V 2.2, A 2.49, K 2, L 1.92, D 2.8, Q 2.57, I 1.81, Y 1.62, M 2.11, N 2.5, E 3.45, R 2.22
D14: G 2, Q 1.91, C 1.86, A 1.46, H 1.97, M 1.75, E 2.05, P 1.88, V 1.78, Y 2.56, K 1.96, F 2.04, R 1.7, N 2.13, T 1.94, I 2.02, S 2.09, L 1.62
Q22: E 3.2, T 2.1, Y 1.86, K 1.77, L 1.7, A 1.94, P 2.47, S 2.06, F 1.73, D 2.75, H 2.27, V 2.81, W 2.09, G 2.36, R 2.08, M 1.73, N 2.31, I 1.52, C 1.72
V23: H 1.98, Q 2.56, M 2.29, N 2.58, S 2.96, P 2.81, K 2.38, A 2.39, G 2.52, F 1.89, L 1.91, Y 1.98, D 3.06, E 2.75, R 2.54, T 2.48, I 1.74, W 2.39, C 2.95
F19: K 2.97, S 2.01, L 2.36, D 2.87, R 3.85, Y 1.94, T 2.7, E 3.01, I 2.28, W 1.9, G 2.38, H 3.16, M 2.43, Q 2.81, P 2.4, A 2.19, C 1.96, V 2.28, N 2.92
